According to patent US20230248800A1:

B1: Mpa-Tyr-Phe-Hgn-Asn-Cys-Pro-Lys(X)a-Gly-NH2; (X)a = (Gly)7 [SEQ ID NO. 14] (peptide)
peptide: XFXNCPXG
modifications: Mpa at position 1, disulfide bond between Mpa and Cys; Hgn at position 4; (Gly)7 on the side chain of Lys 8; C-terminal amide
B2: Mpa-Tyr-Phe-Hgn-Asn-Cys-Pro-Lys(X)a-Gly-NH2; (X)a = (Gly)3 [SEQ ID NO. 10] (peptide)
peptide: XFXNCPXG
modifications: Mpa at position 1, disulfide bond between Mpa and Cys; Hgn at position 4; (Gly)3 on the side chain of Lys 8; C-terminal amide
B3: Mpa-Tyr-Phe-Hgn-Asn-Cys-Pro-Lys(X)a-Gly-NH2; (X)a = (Gly)8 [SEQ ID NO. 15] (peptide)
peptide: XFXNCPXG
modifications: Mpa at position 1, disulfide bond between Mpa and Cys; Hgn at position 4; (Gly)8 on the side chain of Lys 8; C-terminal amide
B4: Mpa-Tyr-Phe-Hgn-Asn-Cys-Pro-Lys(X)a-Gly-NH2; (X)a = (Gly)9 [SEQ ID NO. 16] (peptide)
peptide: XFXNCPXG
modifications: Mpa at position 1, disulfide bond between Mpa and Cys; Hgn at position 4; (Gly)9 on the side chain of Lys 8; C-terminal amide
B5: Mpa-Tyr-Phe-Hgn-Asn-Cys-Pro-Lys(X)a-Gly-NH2; (X)a = (Gly)6 [SEQ ID NO. 13] (peptide)
peptide: XFXNCPXG
modifications: Mpa at position 1, disulfide bond between Mpa and Cys; Hgn at position 4; (Gly)6 on the side chain of Lys 8; C-terminal amide
B6: Mpa-Tyr-Phe-Hgn-Asn-Cys-Pro-Lys(X)a-Gly-NH2; (X)a = (Gly)4 [SEQ ID NO. 11] (peptide)
peptide: XFXNCPXG
modifications: Mpa at position 1, disulfide bond between Mpa and Cys; Hgn at position 4; (Gly)4 on the side chain of Lys 8; C-terminal amide
B7: Mpa-Tyr-Phe-Hgn-Asn-Cys-Pro-Lys(X)a-Gly-NH2; (X)a = (Gly)5 [SEQ ID NO. 12] (peptide)
peptide: XFXNCPXG
modifications: Mpa at position 1, disulfide bond between Mpa and Cys; Hgn at position 4; (Gly)5 on the side chain of Lys 8; C-terminal amide
B8: Mpa-Tyr-Phe-Hgn-Asn-Cys-Pro-Lys(X)a-Gly-NH2; (X)a = (Gly)2 [SEQ ID NO. 9] (peptide)
peptide: XFXNCPXG
modifications: Mpa at position 1, disulfide bond between Mpa and Cys; Hgn at position 4; (Gly)2 on the side chain of Lys 8; C-terminal amide
B9: Mpa-Tyr-Phe-Hgn-Asn-Cys-Pro-Lys(X)-Gly-NH2; X = Gly [SEQ ID NO. 8] (peptide)
peptide: XFXNCPXG
modifications: Mpa at position 1, disulfide bond between Mpa and Cys; Hgn at position 4; Gly on the side chain of Lys 8; C-terminal amide

Biological target: human V1a receptor (human) (UniProt P37288)
Test: cell-based or functional assay

Chain of human V1a receptor (human) (P37288 whole entry): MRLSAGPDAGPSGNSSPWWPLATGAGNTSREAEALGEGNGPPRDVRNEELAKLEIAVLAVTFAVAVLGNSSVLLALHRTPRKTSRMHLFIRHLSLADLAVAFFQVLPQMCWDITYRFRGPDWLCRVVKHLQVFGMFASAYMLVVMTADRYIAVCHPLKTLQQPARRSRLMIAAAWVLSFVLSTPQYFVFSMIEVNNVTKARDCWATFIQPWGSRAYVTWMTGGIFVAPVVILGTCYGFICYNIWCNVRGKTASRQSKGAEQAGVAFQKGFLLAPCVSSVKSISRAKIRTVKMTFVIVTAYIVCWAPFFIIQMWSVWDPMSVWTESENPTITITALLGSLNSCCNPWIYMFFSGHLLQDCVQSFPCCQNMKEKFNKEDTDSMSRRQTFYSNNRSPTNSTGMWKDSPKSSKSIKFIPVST

Estimated V1a EC50 (calcium flux)	V1a Highest agonist effect (% of AVP)	Binder
30.9 nM	26.1 % of AVP	B1
53.5 nM	32.9 % of AVP	B2
226 nM	24.8 % of AVP	B3
105 nM	28.1 % of AVP	B4
45.9 nM	28.2 % of AVP	B5
161 nM	33.6 % of AVP	B6
50.1 nM	29.6 % of AVP	B7
38.2 nM	37 % of AVP	B8
25.3 nM	40.3 % of AVP	B9
